Results: US20100196361A1, “Method of inhibition of vascular development using an antibody” (DYAX CORP., priority 2003, published 2010)

B1: E3: human anti-Tie1 antibody from phage Fab library, reformatted as IgG; HC variable SEQ ID NO:114, LC variable SEQ ID NO:116 (antibody, V domains shown)
VH: EVQLLESGGGLVQPGGSLRLSCAASGFTFSMYGMVWVRQAPGKGLEWVSVISPSGGNTGYADSVKGRFTISRDNSKNTLYLQVNSLRAEDTAVYYCARAPRGYSYGYYYWGQGTLVTVSSASTKGPSVFPLAPSSKSTSGG
VL: DIQMTQSPLSLSASVGDRVTITCRASQGIGHYLAWYQQKPGKVPKLLIYTASTLQSGVPSRFSGSGSGTDFTLTINSLQPEDVATYYCQQFNSYPHTFGQGTRLDIK
modifications: IgG constant regions; Synthetically generated peptide
B2: parental E3 Fab: soluble Fab fragment of the parental E3 anti-Tie1 antibody (antibody, V domains shown)
VH: B1 VH
VL: B1 VL

Target: T1, Tie1-EpoR chimeric receptor (UniProt P14753+P35590)
T1 construct: PCR amplified extracellular part of human Tie1 (bp 37-2316 of X60975); expressed in transfected cells
T1 sequence (P35590+P14753 with tags, fused parts or gaps): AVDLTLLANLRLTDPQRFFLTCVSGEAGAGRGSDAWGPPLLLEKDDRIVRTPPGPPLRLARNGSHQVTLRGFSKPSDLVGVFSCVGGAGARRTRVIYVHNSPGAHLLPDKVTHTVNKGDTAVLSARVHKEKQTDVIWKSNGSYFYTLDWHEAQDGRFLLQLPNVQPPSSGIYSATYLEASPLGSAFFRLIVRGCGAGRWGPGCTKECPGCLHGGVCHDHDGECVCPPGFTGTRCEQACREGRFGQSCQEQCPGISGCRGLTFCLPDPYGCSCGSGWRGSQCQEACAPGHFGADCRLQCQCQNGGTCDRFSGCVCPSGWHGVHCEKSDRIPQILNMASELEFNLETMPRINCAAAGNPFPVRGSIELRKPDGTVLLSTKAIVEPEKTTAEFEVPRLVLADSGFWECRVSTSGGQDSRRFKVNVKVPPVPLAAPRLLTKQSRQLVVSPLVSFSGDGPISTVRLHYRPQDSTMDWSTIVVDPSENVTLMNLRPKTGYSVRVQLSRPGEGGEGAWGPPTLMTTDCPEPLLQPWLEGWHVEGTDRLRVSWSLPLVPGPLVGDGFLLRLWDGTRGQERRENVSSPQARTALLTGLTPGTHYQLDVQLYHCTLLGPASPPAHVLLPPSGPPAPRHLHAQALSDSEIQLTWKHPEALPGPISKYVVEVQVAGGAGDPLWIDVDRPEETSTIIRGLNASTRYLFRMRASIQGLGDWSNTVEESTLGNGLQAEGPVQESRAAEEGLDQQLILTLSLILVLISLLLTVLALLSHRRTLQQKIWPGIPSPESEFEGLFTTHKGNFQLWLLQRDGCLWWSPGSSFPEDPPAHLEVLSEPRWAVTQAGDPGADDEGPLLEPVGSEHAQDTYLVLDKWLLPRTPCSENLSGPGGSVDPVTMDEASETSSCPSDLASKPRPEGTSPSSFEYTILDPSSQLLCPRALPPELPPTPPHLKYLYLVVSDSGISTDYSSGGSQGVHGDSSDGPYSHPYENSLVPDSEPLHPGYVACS
Test: BaF3 bioassay (Tie1/EpoR chimeric BaF3 cell assay)
Format: cell-based, human
Settings: for survival (viability) of Tie1-EpoR BaF3 cells: no IL-3, MTT
Source text: BaF3 bioassay. To generate Tie1-EpoR expressing BaF3 cells for the bioassay, BaF3 pre-B cells were stably transfected with a nucleic acid that expresses chimeric receptor containing the extracellular domain of human Tie1 fused with the transmembrane and cytoplasmic domains of the mouse erythropoietin receptor. The nucleic acid used was a Tie1-EpoR chimeric cDNA in a pEF-BOS expression vector. The nucleic acid encoding the chimeric receptor was constructed by cloning the PCR amplified extracellular part of human Tie1 (bp 37-2316 of X60975) as EcoRI-BglII fragment into mEpoR-pcDNA vector. The cDNA encoding for the chimeric receptor consisting of the extracellular part of Tie1 fused with the transmembrane and intracellular domains of EpoR was subcloned into the pEF-BOS expression vector. Vector was linearized and co-transfected into BaF3 cells with pcDNA3.1(+) Zeo vector (Invitrogen). Stable cell pools were generated by selection with 250 μg/ml Zeocin. The expression of Tie1/EpoR fusion protein in several clones was analyzed by Western blotting with an antibody against EpoR.
To perform the assays, BaF3 cells expressing the Tie1-EpoR chimera were split in 96-well microtiter plates at 50 000 cells/well in the presence of the indicated concentrations of anti-Tie1 antibodies. The E3 antibody used in this study was the germ-lined E3 antibody (DX-2220). As controls, Zeocin resistant pools not expressing the Tie1-EpoR were used. After 48 h, the viability of the cells was determined by adding MTT (3-(4,5-dimethylthiazol-2-yl)-2,5-diphenyl tetrazolium bromide (Sigma), 0.5 mg/ml), followed by further 2 h of culture, addition of an equal volume of cell lysis solution (10% SDS, 10 mM HCl) and incubation overnight at 37° C. Absorbance was measured at 540 nm.
Stimulation and inhibition of Tie1 in Tie1-EpoR transfected BaF3 cells and human primary endothelial cells. Although no ligand for Tie1 has been identified, we used the following efficient screening method for Tie1-binding proteins. Interleukin-3 dependent pre-B-lymphocyte (BaF3) cells were transfected with a construct that expresses a Tie1-EpoR fusion protein. Since BaF3 cells are IL-3 dependent, they die unless IL-3 is provided. However, Tie-EpoR receptor expressing BaF3 cells can survive and proliferate if the medium contains a Tie1-binding protein, either a natural ligand or an artificial mimetic. Cell survival can be quantitated, e.g., by colorimetric MTT-assay, which measures mitochondrial activity.
To determine if any of the other monoclonal antibodies tested inhibit the survival effect of E3 IgG in Tie1-EpoR BaF3 assay, antibodies were studied in combination with E3 IgG. A concentration of 100 ng/ml of E3 IgG together with 100 (1:1) or 500 (1:5) ng/ml of the other antibodies were used and the viability of Tie1-EpoR cells was measured.

| Molecule | viability of EpoR BaF3 cells used as a control (cells not expressing Tie1-EpoR) | survival (viability) of Tie1-EpoR BaF3 cells | survival (viability) of Tie1-EpoR BaF3 cells (listed as E3 IgG) | concentration giving almost maximal viability in Tie1-EpoR cell survival assays (viability dose dependent) [ng/mL] |
| --- | --- | --- | --- | --- |
| B1 | not affected | functions as a Tie1 activating antibody in the BaF3 cell bioassay | able to promote survival of Tie1-EpoR cells | 50 |
| B2 |  | no effect on the viability of Tie1-EpoR cells |  |  |
